The results in this text go back to paper PMC4874933.

No end group written: not given here.

This test has as its target fibrils composed of synthetic human λ6 variable domain (rVλ6Wil) (human). In words: co-sedimentation.

B1: Tc-99m labeled GGGY-p5+14 peptide (peptide)
peptide: GGGYSKAQKAQAKQAKQAQKAQKAQAKQAKQAQKAQKAQAKQAKQA
modifications: also: Tc-99m label coupled directly, site not characterised
With B1, the % bound came out at 58%.
